Results: paper doi:10.1101/2021.02.02.429153 (bioRxiv, 2021)

Target: T1, tryptophan 2-C-methyltransferase (TsrM) from Streptomyces laurentii (Streptomyces laurentii, UniProt C0JRZ9 1-599)
T1 sequence (looked up): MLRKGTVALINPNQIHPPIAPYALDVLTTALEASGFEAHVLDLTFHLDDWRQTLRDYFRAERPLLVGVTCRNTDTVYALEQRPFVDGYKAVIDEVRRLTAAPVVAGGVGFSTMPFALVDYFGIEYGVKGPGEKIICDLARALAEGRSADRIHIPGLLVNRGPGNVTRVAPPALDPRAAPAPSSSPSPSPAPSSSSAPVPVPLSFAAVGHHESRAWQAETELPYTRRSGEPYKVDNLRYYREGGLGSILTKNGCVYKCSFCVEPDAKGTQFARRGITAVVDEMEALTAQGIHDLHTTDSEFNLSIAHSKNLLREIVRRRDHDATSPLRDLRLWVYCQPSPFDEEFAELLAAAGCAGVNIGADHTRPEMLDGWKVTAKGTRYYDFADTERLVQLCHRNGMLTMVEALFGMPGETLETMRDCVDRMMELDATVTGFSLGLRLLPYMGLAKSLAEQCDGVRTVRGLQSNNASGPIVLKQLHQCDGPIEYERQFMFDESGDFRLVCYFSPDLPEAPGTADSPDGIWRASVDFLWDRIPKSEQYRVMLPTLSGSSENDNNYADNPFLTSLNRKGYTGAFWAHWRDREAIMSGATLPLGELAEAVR
Experiment: BLI

B1: Streptomyces cattleya [4Fe-4S] ferredoxin Fdx1 (natural protein, UniProt F8K3M7 1-106, looked up)
chain: MTYVIAQPCVDVKDKACIEECPVDCIYEGQRSLYIHPDECVDCGACEPVCPVEAIFYEDDTPEEWKDYYKANVEFFDELGSPGGASKLGLIERDHPFIAALPPQNG
modifications: biotinylated through incubation with 1 equivalent of NHS-PEG4-Biotin
- Kd: 40 µM
